{
  "source": "paper PMC3970758",
  "about": "“A conserved MCM single-stranded DNA binding element is essential for replication initiation”",
  "molecules": {"B1": {"name": "26-mer dsDNA (dsDNA)", "DNA 1": "ATGGCAGATCTCAATTGGATATCGGC", "DNA 2": "GCCGATATCCAATTGAGATCTGCCAT"}},
  "key": {"[1]": {"molecular_target": "Pyrococcus furiosus MCM N-terminal domain (PfMCM 1-256) (Pyrococcus furiosus) (UniProt Q8U3I4)", "assay": "crystal structure; PfMCMN with 30-mer poly-dT ssDNA; hanging drop, 18°C, 50 mM MES pH 6.0, 10 mM Mg(OAc)2, 28.5% PEG 3350; 3.2 Å; two hexamers in the asymmetric unit"}, "[2]": {"molecular_target": "Pyrococcus furiosus MCM N-terminal domain (PfMCM 1-256) (Pyrococcus furiosus) (UniProt Q8U3I4)", "assay": "crystal structure; PfMCMN without DNA; sitting drop, 18°C, 0.2 M sodium malonate pH 7.0, 20% PEG 3350; 2.65 Å; one hexamer in the asymmetric unit"}, "PfMCMN WT [3]": {"molecular_target": "T1, PfMCMN WT (Pyrococcus furiosus, UniProt Q8U3I4 1-256)", "T1 sequence": "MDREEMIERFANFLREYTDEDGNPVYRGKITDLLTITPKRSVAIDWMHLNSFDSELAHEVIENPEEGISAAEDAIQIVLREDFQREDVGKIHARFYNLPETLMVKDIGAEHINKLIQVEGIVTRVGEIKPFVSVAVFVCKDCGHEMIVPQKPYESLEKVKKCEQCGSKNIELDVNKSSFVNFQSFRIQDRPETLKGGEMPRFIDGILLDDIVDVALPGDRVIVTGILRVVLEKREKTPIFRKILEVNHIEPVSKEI", "assay": "crystal structure (3.2 A); 10 mM Mg(OAc)2 in well solution; Zn-binding subdomain; EMSA: 20 mM HEPES pH 7.6, 200 mM NaCl, 5 mM MgCl2, 5 mM bME, 25 C, 30 min, 160 nM DNA; 4-20% TBE PAGE", "details": "protein: recombinant; tags: His6-SUMO removed by Ulp1; in-frame BamHI site may leave extra N-terminal residues"}, "PfMCMN WT [4]": {"molecular_target": "T1, PfMCMN WT", "assay": "EMSA; 5 mM Mg2+; EMSA: 20 mM HEPES pH 7.6, 200 mM NaCl, 5 mM MgCl2, 5 mM bME, 25 C, 30 min, 160 nM DNA; 4-20% TBE PAGE", "details": "protein: recombinant, tags: His6-SUMO removed by Ulp1, in-frame BamHI site may leave extra N-terminal residues"}},
  "data": [
    {"molecule": "Pyrococcus furiosus MCM N-terminal domain (PfMCM 1-256) (from UniProt Q8U3I4 1-256) (domain or fragment)", "values": [
      {"measurement": "stoichiometry N", "setting": "[1]", "result": 6},
      {"measurement": "stoichiometry N", "setting": "[2]", "result": 6}
    ]},
    {"molecule": "TTTTTTTTTTTTTTTTTTTTTTTTTTTTTT (ssDNA)", "note": "[poly-dT 30-mer]", "values": [
      {"measurement": "binding result", "setting": "PfMCMN WT [3]", "result": "binds"}
    ]},
    {"molecule": "TTTTTTTTTTTTTTTTTTTTTTTTTTTTTTTTTTTTTTTT (ssDNA)", "note": "[T40 ssDNA]", "values": [
      {"measurement": "apparent K (half saturation)", "setting": "PfMCMN WT [4]; label: 5'-fluorescein", "result": 6.8, "unit": "µM"}
    ]},
    {"molecule": "B1", "values": [
      {"measurement": "apparent K (half saturation)", "setting": "PfMCMN WT [4]; label: 5'-fluorescein on strand 1, blunt", "result": 7, "unit": "µM"}
    ]}
  ]
}
